The text below walks through data of paper PMC11063955, “A multiplexed time-resolved fluorescence resonance energy transfer ultrahigh-throughput screening assay for targeting the SMAD4–SMAD3–DNA complex” (Journal of Molecular Cell Biology, 2023).

Substitutions are numbered along the chain they refer to.

Details in all cases: remark: other sources report otherwise
The target in experiment [1] is T1, His-tagged SMAD4 WT (Mothers against decapentaplegic homolog 4), Q13485.
T1 chain: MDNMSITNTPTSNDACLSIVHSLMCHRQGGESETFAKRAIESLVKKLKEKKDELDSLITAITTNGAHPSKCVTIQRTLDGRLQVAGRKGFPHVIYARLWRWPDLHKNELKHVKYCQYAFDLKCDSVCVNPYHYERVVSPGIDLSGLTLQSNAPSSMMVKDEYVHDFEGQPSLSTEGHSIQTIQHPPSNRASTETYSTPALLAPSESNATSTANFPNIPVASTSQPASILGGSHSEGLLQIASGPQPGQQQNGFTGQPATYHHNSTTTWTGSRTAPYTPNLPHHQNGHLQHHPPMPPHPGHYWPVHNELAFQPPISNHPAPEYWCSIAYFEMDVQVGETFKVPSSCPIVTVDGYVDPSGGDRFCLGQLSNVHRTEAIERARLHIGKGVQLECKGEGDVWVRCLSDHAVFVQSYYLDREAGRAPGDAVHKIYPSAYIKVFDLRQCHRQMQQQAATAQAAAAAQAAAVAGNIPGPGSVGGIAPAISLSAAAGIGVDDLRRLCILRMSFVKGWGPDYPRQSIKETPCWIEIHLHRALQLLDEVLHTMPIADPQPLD
Briefly: AlphaScreen or HTRF; multiplexed TR-FRET, PPI read-out (Tb-D2), lysate of HEK293T cells co-expressing His-SMAD4 and Flag-SMAD3 with point-mutated 5'-FAM-SBE4 Mut dsDNA in place of the WT dsDNA. A general note: Bead proximity is the source of the signal in Alpha formats.

In experiment [2] the target is T2, His-tagged SMAD4 R361C, Q13485.
T2 chain: T1 chain with R361C
The experiment in a line: AlphaScreen or HTRF; multiplexed TR-FRET, PPI read-out (Tb-D2), lysate of HEK293T cells co-expressing His-SMAD4 and Flag-SMAD3 (WT or mutated) with 5'-FAM-SBE4 WT dsDNA; anti-FLAG M2-Tb cryptate and anti-6xHis-D2 antibodies; FRET buffer 20 mM Tris-HCl pH 7.0, 50 mM NaCl, 0.01% NP-40; 4°C for 30 min.

In experiment [3] the target is T3, His-tagged SMAD4 R361H, Q13485.
T3 chain: T1 chain with R361H
Described as above.

B1: Flag-tagged SMAD3 WT, P84022 1-425 (natural protein)
chain: MSSILPFTPPIVKRLLGWKKGEQNGQEEKWCEKAVKSLVKKLKKTGQLDELEKAITTQNVNTKCITIPRSLDGRLQVSHRKGLPHVIYCRLWRWPDLHSHHELRAMELCEFAFNMKKDEVCVNPYHYQRVETPVLPPVLVPRHTEIPAEFPPLDDYSHSIPENTNFPAGIEPQSNIPETPPPGYLSEDGETSDHQMNHSMDAGSPNLSPNPMSPAHNNLDLQPVTYCEPAFWCSISYYELNQRVGETFHASQPSMTVDGFTDPSNSERFCLGLLSNVNRNAAVELTRRHIGRGVRLYYIGGEVFAECLSDSAIFVQSPNCNQRYGWHPATVCKIPPGCNLKIFNNQEFAALLAQSVNQGFEAVYQLTRMCTIRMSFVKGWGAEYRRQTVTSTPCWIELHLNGPLQWLDKVLTQMGSPSIRCSSVS
For the molecule B1, in experiment [1], the decrease of the PPI signal with 5'-FAM-SBE4 Mut dsDNA against WT dsDNA turned out to be 15%. Also, the reduction of the PPI signal against SMAD4 WT in experiment [2] and in experiment [3] was 75% each time.
